Assay results as given in US20160280788A1, “USE OF ANTIBODIES AGAINST ICAM-1 IN THE TREATMENT OF PATIENTS WITH RELAPSED CANCER” (BioInvent International AB, priority 2010, published 2016).

Key:
Type in all cases: cell-based
[1] = tested on: ICAM-1 expressing tumor cell lines; assay: Complement-dependent cytotoxicity in tumor cell lines; conditions: panel of ICAM-1 expressing tumor cell lines; human serum
Protocol: Target cells were harvested and incubated in RPMI medium with antibodies at 5 μg/mL or at titrated concentrations between 0.01-100 μg/mL for 60 min on ice. Cells were thereafter washed and resuspended in cold medium before dispension into flow cytometry tubes. Treatments were performed in triplicates. Human serum, normal or heat-inactivated, (Sigma, Sweden) was added to tubes and the samples were incubated for 2 h at 37° C. After completed incubation ToPo-Pro-3 was added at a final concentration of 0.3 μM and cells were analyzed for membrane permeabilization using flow cytometry.

[2] = tested on: HUVEC and HMVEC endothelial cells; assay: PCD in normal endothelial cells; conditions: resting or activated (IFN-γ) cells
Protocol: Target cells were seeded in 96-well culture plates at a density of 2×10^6 cells/mL culture medium. Titrated concentrations of IgG1 B11 or different negative and positive control antibodies were added to the cells, in the absence or presence of anti-human Fab fragment (Jackson ImmunoResearch) for cross-linking. The cells were then incubated for 16 hours at 37° C. in a humidified atmosphere of 5% CO2. The cells were harvested and stained for Annexin V-488/Propidium Iodide (Invitrogen, Sweden) and analysed using flow cytometer (FACS Calibur, BD Bioscience).

[3] = tested on: HUVEC, HMVEC or peripheral blood B cells; assay: ADCC of normal ICAM-1 expressing cells
Description: Buffy coats from human donors (ordered through Blodcentralen, Lund) were used to isolate peripheral blood mononuclear cells (PBMCs), and subsequently NK cells. Briefly, peripheral blood components were separated using Ficoll Paque PLUS (Amersham Biosciences, Sweden) in LeucoSep tubes (Greiner Bio-One). The PBMC fraction was removed and thoroughly washed in ice-cold DPBS (Invitrogen), before magnetic labeling and separation of the NK cell population using positive or negative NK cell isolation kits and MACS LS columns (Miltenyi Biotec). The purity of the obtained NK cell fractions was analyzed using flow cytometry, after staining with α-CD56 antibodies (BD Biosciences). Target cells were harvested, and incubated in medium with or without the respective antibodies (2 μg/mL) for 60 min on ice. Cells were thereafter washed and resuspended in cold medium before dispension into FACS tubes. Subsequently, isolated NK cells were diluted in ADCC medium and dispensed together with the respective antibody-coated target cells at varying effector/target cell ratios (40:1, 20:1, 5:1 and 1:1). All experiments were performed in triplicates. After completed incubation ToPo-Pro-3 dye and counting beads (Invitrogen) were added and cells were analyzed for membrane permeabilization using flow cytometry.

B1: IgG B11: fully human ICAM-1 antibody isolated from the n-CoDeR library; VH/VL sequences in FIG. 15 (SEQ ID NOs 8, 10) (antibody, V domains shown)
VH: EVQLLESGGGLVQPGGSLRLSCAASGFTFSNAWMSWVRQAPGKGLEWVAFIWYDGSNKYYADSVKGRFTISRDNSKNTLYLQMNSLRAEDTAVYYCARYSGWYFDYWGQGTLVTVSS
VL: QSVLTQPPSASGTPGQRVTISCTGSSSNIGAGYDVHWYQQLPGTAPKLLIYDNNNRPSGVPDRFSGSKSGTSASLAISGLRSEDEADYYCQSYDSSLSAWLFGGGTKLTVLG
modifications: B11 VH region; B11 VL region
induction of CDC [1]: did not induce CDC
PCD induction in normal endothelial cells [2]: did not, however, induce PCD
ADCC of normal cells [3]: did not confer ADCC
